Here are results for 26 molecules from US20250352661A1 (MYTHIC THERAPEUTICS, published 2025).

The target of assay [1] is T1, Human LRRC15 Protein, His Tag (Acro Biosystems) (human, UniProt Q8TF66 22-538, limits assumed).
T1 construct: not shown: His tag
T1 sequence (looked up): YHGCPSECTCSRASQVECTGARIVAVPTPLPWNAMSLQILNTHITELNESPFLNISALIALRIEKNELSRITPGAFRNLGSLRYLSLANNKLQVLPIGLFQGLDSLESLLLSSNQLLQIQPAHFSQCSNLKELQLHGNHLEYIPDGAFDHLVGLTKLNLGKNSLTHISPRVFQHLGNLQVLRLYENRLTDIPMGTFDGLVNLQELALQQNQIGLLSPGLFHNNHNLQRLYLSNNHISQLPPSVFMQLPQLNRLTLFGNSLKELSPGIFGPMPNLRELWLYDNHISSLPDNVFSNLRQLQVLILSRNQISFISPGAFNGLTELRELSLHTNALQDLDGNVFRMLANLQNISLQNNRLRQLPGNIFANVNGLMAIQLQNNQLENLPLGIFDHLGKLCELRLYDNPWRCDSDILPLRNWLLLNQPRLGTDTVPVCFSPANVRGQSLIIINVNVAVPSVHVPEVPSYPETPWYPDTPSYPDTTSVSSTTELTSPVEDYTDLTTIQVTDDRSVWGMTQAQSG
Briefly: BLI; dissociation pH 7.4 black, pH 5.4 grey [1/2); D00025 FIG. 6B (1/2]. The protocol:
Desirable mutations were transferred to a humanized framework (humanized, MYT 8387-8411). After allowing for four days of protein expression, cell culture supernatants were collected, quantified by SDS-PAGE analysis, and the pH dependence of the variant was evaluated using biolayer interferometry (BLI) on an Octet RED 96e instrument. Briefly, cell culture supernatants were diluted based on qualitative expression level of the variant determined by visual examination of SDS-PAGE gels, 5 μL of cell culture supernatant was diluted into 195 μL of 1×PBST, pH 7.4 for high expressors, 25 μL of cell culture supernatant was diluted into 175 μL of 1×PBST, pH 7.4 for medium expressors and 100 μL of cell culture supernatant was diluted into 100 μL of 1×PBST, pH 7.4 for low expressors for loading onto the sensor tips. The resulting diluted supernatants were then captured on an anti-human Fc sensor (Forte Bio). A baseline was established using 1×PBST (50 mM Potassium Phosphate Buffer+150 mM NaCl+0.05% Tween 20) pH 7.4, and the […] was associated with 50 nM of LRRC15 (Human LRRC15 Protein, His Tag, Acro Biosystems) in 1×PBST pH 7.4 for 120 sec to generate an association curve. In the dissociation phase, the antibody-antigen complex on the sensor was exposed to 1×PBST pH 7.4 or pH 5.4, for 300 sec. Association and dissociation phase curves were examined for the starting ABPC antibody (with no substitutions) and each corresponding antibody variant at pH 5.4 and pH 7.4 to inform on two criteria: a) enhanced dissociation (i.e., higher koff values) at pH 5.4 due to histidine substitution compared to the starting ABPC, (with no substitutions), and b) reduced dissociation at pH 7.4 (i.e., lower koff values) compared to pH 5.4 in the antibody variant itself and with the starting ABPC (with no substitutions).
The methods of Examples 9-10 were applied to RabMAb clone 29F1 (rabbit VH SEQ ID NO: 572 and VL SEQ ID NO: 578; and humanized VH SEQ ID NO: 576 and VL SEQ ID NO: 582).

Assay [2] has as its target T2, Human LRRC15 Protein, His Tag (Acro Biosystems) (human, UniProt Q8TF66 22-538, limits assumed).
T2 sequence (looked up): T1 sequence (looked up)
Briefly: BLI; dissociation pH 7.4 black, pH 5.4 grey [1/2); D00006 FIG. 1E (1/2]. The source says:
For each individual plot, antigen binding proteins were captured on anti-human Fc biosensors and associated with LRRC15 at pH 7.4. Dissociation was at pH 7.4 (black) or pH 5.4 (grey). Major X-axis ticks=100 seconds, with left dashed vertical line=0 seconds. Major Y-axis ticks=0.5 nm and octet plots are shown MYT5712 and MYT6080-MYT6121.
Multiple LRRC15-binding monoclonal antibodies have been described in the literature and can be used as a template for engineering pH-dependent binding. We selected discovery RabMAb clone 15G7 (rabbit VH SEQ ID NO: 378, rabbit VL SEQ ID NO: 451; humanized VH SEQ ID NO: 382, humanized VL SEQ ID NO: 455) as a LRRC15-binding monoclonal antibody for pH-engineering via histidine scanning. […] To generate pH-dependent sequence variants, individual amino acid residues within the heavy chain CDRs were systematically substituted with a histidine (or alanine if H was already present in a given position; e.g., MYT6099), one at a time (rabbit, MYT6080-6121). Desirable mutations were transferred to a humanized framework (humanized, MYT 8387-8411). After allowing for four days of protein expression, cell culture supernatants were collected, quantified by SDS-PAGE analysis, and the pH dependence of the variant was evaluated using biolayer interferometry (BLI) on an Octet RED 96e instrument. Briefly, cell culture supernatants were diluted based on qualitative expression level of the variant determined by visual examination of SDS-PAGE gels, 5 μL of cell culture supernatant was diluted into 195 μL of 1×PBST, pH 7.4 for high expressors, 25 μL of cell culture supernatant was diluted into 175 μL of 1×PBST, pH 7.4 for medium expressors and 100 μL of cell culture supernatant was diluted into 100 μL of 1×PBST, pH 7.4 for low expressors for loading onto the sensor tips.

Changes are numbered by the printed parent chain. In names and notes the source's numbering stands.

B1: MYT9684 (antibody, V domains shown)
VH: EVQLVESGGGLVQPGGSLRLSCTASEFSFSSSHWICWVRQAPGKGLEWVGCIYAGSIGSTYYASWAKGRFTISRDTSKNTVYLQMNSLRAEDTAVYYCARAPNDIYNYYFNLWGQGTLVTVSS
VL: EIVMTQSPSTLSASVGDRVIITCQASENIYNYLAWYQQKPGKAPKLLIYYASTLASGVPSRFSGSGSGAEFTLTISSLQPDDFATYYCQSGYVSKSSTFGQGTKLTVL
notes: also called hu29F1 VH G26E
For the molecule B1, the binding result in assay [1] is “binds”.

B2: MYT9696 (antibody, V domains shown)
VH: B1 VH with E26G, I52E
VL: B1 VL
notes: also called hu29F1 VH I52E
For B2, the binding result in assay [1] was “binds”.

B3: MYT9712 (antibody, V domains shown)
VH: B1 VH with E26G, G68E
VL: B1 VL
notes: also called hu29F1 VH G68E
Take B3: in assay [1], the binding result was “binds”.

B4: MYT9691 (antibody, V domains shown)
VH: B1 VH with E26G, H33E
VL: B1 VL
notes: also called hu29F1 VH H33E
For the molecule B4, the binding result in assay [1] is “binds”.

B5: MYT9690 (antibody, V domains shown)
VH: B1 VH with E26G, S32E
VL: B1 VL
notes: also called hu29F1 VH S32E
For B5, the binding result in assay [1] was “binds”.

B6: MYT9711 (antibody, V domains shown)
VH: B1 VH with E26G, K67E
VL: B1 VL
notes: also called hu29F1 VH K67E
For the molecule B6, in assay [1], the binding result was “binds”.

B7: MYT9706 (antibody, V domains shown)
VH: B1 VH with E26G, Y62E
VL: B1 VL
notes: also called hu29F1 VH Y62E
As to B7, in assay [1], the binding result is given as “binds”.

B8: MYT9707 (antibody, V domains shown)
VH: B1 VH with E26G, A63E
VL: B1 VL
notes: also called hu29F1 VH A63E
As to B8, the binding result in assay [1] is reported as “binds”.

B9: MYT9699 (antibody, V domains shown)
VH: B1 VH with E26G, G55E
VL: B1 VL
notes: also called hu29F1 VH G55E
On to B9, for which the binding result in assay [1] was “binds”.

B10: MYT9701 (antibody, V domains shown)
VH: B1 VH with E26G, I57E
VL: B1 VL
notes: also called hu29F1 VH I57E
For the molecule B10, the binding result in assay [1] is listed as “binds”.

B11: MYT9685 (antibody, V domains shown)
VH: B1 VH with E26G, F27E
VL: B1 VL
notes: also called hu29F1 VH F27E
As to B11, in assay [1], the binding result is “binds”.

B12: MYT9686 (antibody, V domains shown)
VH: B1 VH with E26G, S28E
VL: B1 VL
notes: also called hu29F1 VH S28E
Take B12: the binding result in assay [1] is “binds”.

B13: MYT9708 (antibody, V domains shown)
VH: B1 VH with E26G, S64E
VL: B1 VL
notes: also called hu29F1 VH S64E
Turning to B13, the binding result in assay [1] was “binds”.

B14: MYT9710 (antibody, V domains shown)
VH: B1 VH with E26G, A66E
VL: B1 VL
notes: also called hu29F1 VH A66E
Consider B14, for which, in assay [1], the binding result is “binds”.

B15: MYT9703 (antibody, V domains shown)
VH: B1 VH with E26G, S59E
VL: B1 VL
notes: Humanized 29F1 VH glutamate variant; also called hu29F1 VH S59E
On to B15, for which the binding result in assay [1] is on record as “binds”.

B16: MYT9705 (antibody, V domains shown)
VH: B1 VH with E26G, Y61E
VL: B1 VL
notes: also called hu29F1 VH Y61E
Consider B16, for which, in assay [1], the binding result is recorded as “binds”.

B17: MYT9689 (antibody, V domains shown)
VH: B1 VH with E26G, S31E
VL: B1 VL
notes: also called hu29F1 VH S31E
In the case of B17, the binding result in assay [1] is on record as “binds”.

B18: MYT9704 (antibody, V domains shown)
VH: B1 VH with E26G, T60E
VL: B1 VL
notes: also called hu29F1 VH T60E
With B18, in assay [1], the binding result is “binds”.

B19: MYT9702 (antibody, V domains shown)
VH: B1 VH with E26G, G58E
VL: B1 VL
notes: also called hu29F1 VH G58E
Take B19: the binding result in assay [1] is listed as “binds”.

B20: MYT9688 (antibody, V domains shown)
VH: B1 VH with E26G, S30E
VL: B1 VL
notes: also called hu29F1 VH S30E
Consider B20, for which, in assay [1], the binding result is listed as “binds”.

B21: MYT9693 (antibody, V domains shown)
VH: B1 VH with E26G, I35E
VL: B1 VL
notes: also called hu29F1 VH I35E
As to B21, the binding result in assay [1] was “binds”.

B22: MYT6106 (antibody, V domains shown)
VH: QEQLEESGGDLVKPGASLTLTCTASGLDFRRTNYICWVRQAPGKGLEWIGCIYIADVVHYYASWAHGRFTFSKTSSTTVTLQMTSLTAADTATYFCARGADGGFVYGMDLWGPGTLVTVSS
VL: DVVMTQTPASVSEPVGGTVTIKCQASQSIGNYLSWYQQKPGQRPKRLIYSASTLPSGVPSRFKGAGSGTEFTLTISDLESADAATYYCQNNYWLAGYGHPFGGGTEVVVK
notes: chimeric rabbit 15G7 variant (rabbit variable domains, human constant regions); also called 15G7 VH K66H
B22: the binding result in assay [2] is on record as “binds”.

B23: MYT6108 (antibody, V domains shown)
VH: B22 VH with H66K, A97H
VL: B22 VL
notes: chimeric rabbit 15G7 variant (rabbit variable domains, human constant regions); also called 15G7 VH A97H
Take B23: the binding result in assay [2] is “binds”.

B24: MYT6110 (antibody, V domains shown)
VH: B22 VH with H66K, G99H
VL: B22 VL
notes: chimeric rabbit 15G7 variant (rabbit variable domains, human constant regions); also called 15G7 VH G99H
With B24, the binding result in assay [2] is listed as “binds”.

B25: MYT6109 (antibody, V domains shown)
VH: B22 VH with H66K, R98H
VL: B22 VL
notes: chimeric rabbit 15G7 variant (rabbit variable domains, human constant regions); also called 15G7 VH R98H
B25: the binding result in assay [2] is listed as “binds”.

B26: MYT6107 (antibody, V domains shown)
VH: B22 VH with H66K, G67H
VL: B22 VL
notes: chimeric rabbit 15G7 variant (rabbit variable domains, human constant regions); also called 15G7 VH G67H
In the case of B26, the binding result in assay [2] is recorded as “binds”.
